Article PMC3458822, “Dimerization of DOCK2 Is Essential for DOCK2-Mediated Rac Activation and Lymphocyte Migration” (PLoS ONE, 2012)

Assays:
[1] = biological target: murine DOCK2 DHR-2 domain, wild type (murine); assay: SEC; Superdex 200 10/300 GL, 20 mM Tris-HCl pH 8.0, 250 mM NaCl, 5 mM 2-mercaptoethanol, 1 ml/minute, 20°C; size estimated against protein standards
[2] = biological target: the molecule itself; assay: crystal structure; human DOCK2 DHR-2 in complex with Rac1, PDB 3B13

Work on “murine DOCK2 DHR-2 domain, wild type (domain or fragment)” yielded a stoichiometry N [1] of 2.

B1: human DOCK2 DHR-2 domain (domain or fragment)
chain: SKDNRMSCTVNLLNFYKDNNREEMYIRYLYKLRDLHLDCDNYTEAAYTLLLHTWLLKWSDEQCASQVMQTGQQHPQTHRQLKETLYETIIGYFDKGKMWEEAISLCKELAEQYEMEIFDYELLSQNLIQQAKFYESIMKILRPKPDYFAVGYYGQGFPSFLRNKVFIYRGKEYERREDFQMQLMTQFPNAEKMNTTSAPGDDVKNAPGQYIQCFTVQPVLDEHPRFKNKPVPDQIINFYKSNYVQRFHYSRPVRRGTVDPENEFASMWIERTSFVTAYKLPGILRWFEVVHMSQTTISPLENAIETMSTANEKILMMINQYQSDETLPINPLSMLLNGIVDPAVMGGFAKYEKAFFTEEYVRDHPEDQDKLTHLKDLIAWQIPFLGAGIKIHEKRVSDNLRPFHDRMEECFKNLKMKVEKEYGVREM
notes: DOCK2, human, DHR-2 domain (lobes A, B and C) as crystallised with Rac1; Dimerises through lobe A in the crystal
In the case of B1, the “stoichiometry N” value [2] is reported as 2.
